Target: recombinant human ACE2 receptor (SinoBiological) (human) (UniProt Q9BYF1)
UniProt Q9BYF1, sequence (Q9BYF1 18-740 limits assumed): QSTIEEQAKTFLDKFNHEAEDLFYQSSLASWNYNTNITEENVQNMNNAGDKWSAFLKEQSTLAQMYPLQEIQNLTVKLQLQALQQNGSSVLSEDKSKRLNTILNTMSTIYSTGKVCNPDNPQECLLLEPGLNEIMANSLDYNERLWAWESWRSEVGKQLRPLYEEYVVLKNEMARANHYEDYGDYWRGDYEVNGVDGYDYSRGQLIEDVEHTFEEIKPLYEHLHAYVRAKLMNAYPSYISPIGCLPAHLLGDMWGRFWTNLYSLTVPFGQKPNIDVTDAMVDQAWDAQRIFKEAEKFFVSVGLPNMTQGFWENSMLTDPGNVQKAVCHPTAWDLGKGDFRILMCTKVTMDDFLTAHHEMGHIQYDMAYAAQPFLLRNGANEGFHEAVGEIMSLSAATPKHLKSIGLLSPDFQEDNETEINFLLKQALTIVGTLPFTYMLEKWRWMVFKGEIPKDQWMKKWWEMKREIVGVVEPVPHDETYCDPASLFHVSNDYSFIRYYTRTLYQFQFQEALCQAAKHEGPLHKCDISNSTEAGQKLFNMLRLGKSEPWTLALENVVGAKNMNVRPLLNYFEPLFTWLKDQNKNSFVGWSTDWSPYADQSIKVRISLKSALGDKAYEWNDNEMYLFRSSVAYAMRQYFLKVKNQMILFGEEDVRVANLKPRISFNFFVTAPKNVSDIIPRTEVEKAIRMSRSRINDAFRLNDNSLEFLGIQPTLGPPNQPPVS

Substance	fold higher binding activity than the reference Wuhan RBD-C-tag [fold]
RBD-omicron B.1.1.529 (RBD-C-tag) (other; other documents disagree on this pair)	4
RBD-omicron BA.5 (RBD-C-tag) (other; other documents disagree on this pair)	8
